# Experimental data from patent publication US20050282743A1, “Molecular interactions in cells” (Arbor Vita Corporation, priority 2001, published 2005).
# Assays:
# [1] = biological target: T1, GST-KIAA0300 PDZ domain 1 (UniProt O15018); test: G' assay; further: key of the grades not given here
# T1 sequence (looked up): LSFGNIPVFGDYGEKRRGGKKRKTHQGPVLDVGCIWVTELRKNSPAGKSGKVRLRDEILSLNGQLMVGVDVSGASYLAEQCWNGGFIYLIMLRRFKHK
# [2] = biological target: GST-DLG-1 PDZ domains 1 to 3 (Example 6) (Homo sapiens) (UniProt Q12959); test: G assay competition vs 20 uM biotin-CLASP-2 20-mer; competitor 100 uM
# [3] = biological target: GST-DLG-1 PDZ domains 1 to 3 (Example 6) (Homo sapiens) (UniProt Q12959); test: G assay competition vs 10 uM biotin-CD95 20-mer; competitor 100 uM
# [4] = biological target: GST-DLG-1 PDZ domains 1 to 3 (Example 6) (Homo sapiens) (UniProt Q12959); test: G assay competition vs 10 uM biotin-KV1.3 20-mer; competitor 100 uM
# [5] = biological target: GST-DLG-1 PDZ domains 1 to 3 (Example 6) (Homo sapiens) (UniProt Q12959); test: G assay competition vs 20 uM biotin-CD46 20-mer; competitor 100 uM
# [6] = biological target: GST-DLG-1 PDZ domains 1 to 3 (Example 6) (Homo sapiens) (UniProt Q12959); test: G assay competition vs 20 uM biotin-CD46 20-mer; competitor 500 uM
# [7] = biological target: GST-PSD95 PDZ domains 1, 2, 3 (Homo sapiens) (UniProt P78352); test: as above
# Chain of GST-PSD95 PDZ domains 1, 2, 3 (Homo sapiens) (P78352 62-395): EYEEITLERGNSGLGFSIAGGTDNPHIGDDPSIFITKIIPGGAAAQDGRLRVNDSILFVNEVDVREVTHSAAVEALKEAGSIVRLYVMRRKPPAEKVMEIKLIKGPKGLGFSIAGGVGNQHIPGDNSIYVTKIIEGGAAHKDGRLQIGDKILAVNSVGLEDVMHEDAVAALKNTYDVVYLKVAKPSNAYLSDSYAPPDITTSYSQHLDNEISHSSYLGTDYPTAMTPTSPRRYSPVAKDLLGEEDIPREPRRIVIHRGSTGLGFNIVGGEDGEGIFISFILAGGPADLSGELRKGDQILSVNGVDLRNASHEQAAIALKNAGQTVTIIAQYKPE
# [8] = biological target: GST-DLG-1 PDZ domains 1 to 3 (Example 6) (Homo sapiens) (UniProt Q12959); test: G assay competition vs 10 uM biotin-CD95 20-mer; competitor 500 uM
# [9] = biological target: GST-PSD95 PDZ domains 1, 2, 3 (Homo sapiens) (UniProt P78352); test: as above
# [10] = biological target: GST-DLG-1 PDZ domains 1 to 3 (Example 6) (Homo sapiens) (UniProt Q12959); test: G assay competition vs 20 uM biotin-CLASP-2 20-mer; competitor 1000 uM
# [11] = biological target: GST-PSD95 PDZ domains 1, 2, 3 (Homo sapiens) (UniProt P78352); test: as above
# [12] = biological target: GST-PSD95 PDZ domains 1, 2, 3 (Homo sapiens) (UniProt P78352); test: G assay competition vs 10 uM biotin-KV1.3 20-mer; competitor 500 uM
# [13] = biological target: GST-DLG-1 PDZ domains 1 to 3 (Example 6) (Homo sapiens) (UniProt Q12959); test: G assay competition vs 10 uM biotin-CD95 20-mer; competitor 1000 uM
# [14] = biological target: GST-PSD95 PDZ domains 1, 2, 3 (Homo sapiens) (UniProt P78352); test: as above
# [15] = biological target: GST-DLG-1 PDZ domains 1 to 3 (Example 6) (Homo sapiens) (UniProt Q12959); test: G assay competition vs 20 uM biotin-CD46 20-mer; competitor 1000 uM
# [16] = biological target: GST-PSD95 PDZ domains 1, 2, 3 (Homo sapiens) (UniProt P78352); test: as above
# [17] = biological target: GST-PSD95 PDZ domains 1, 2, 3 (Homo sapiens) (UniProt P78352); test: G assay competition vs 10 uM biotin-KV1.3 20-mer; competitor 1000 uM
# [18] = biological target: GST-DLG-1 PDZ domains 1 to 3 (Example 6) (Homo sapiens) (UniProt Q12959); test: G assay competition vs 20 uM biotin-CLASP-2 20-mer; competitor 500 uM
# [19] = biological target: GST-PSD95 PDZ domains 1, 2, 3 (Homo sapiens) (UniProt P78352); test: as above
# [20] = biological target: GST-BAI-1 Associated Protein PDZ domain 2 (Mus musculus (Mouse)) (UniProt Q6RHR9); test: G' assay; further: key of the grades not given here
# Chain of GST-BAI-1 Associated Protein PDZ domain 2 (Mus musculus (Mouse)) (Q6RHR9 455-558): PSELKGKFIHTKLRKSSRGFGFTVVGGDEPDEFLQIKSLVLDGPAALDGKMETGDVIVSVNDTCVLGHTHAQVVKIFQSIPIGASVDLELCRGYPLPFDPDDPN
# [21] = biological target: GST-TIP1 PDZ domain 1 (Table 9 insert) (Homo sapiens (Human)) (UniProt O14907); test: G' assay; further: key of the grades not given here
# Chain of GST-TIP1 PDZ domain 1 (Table 9 insert) (Homo sapiens (Human)) (O14907 14-116): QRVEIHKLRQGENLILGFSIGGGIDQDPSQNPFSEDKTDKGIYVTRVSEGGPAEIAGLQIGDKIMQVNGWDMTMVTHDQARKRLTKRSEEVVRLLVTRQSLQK
# [22] = biological target: GST-p55T PDZ domain 1 (Homo sapiens (Human)) (UniProt Q9NZW5); test: G' assay; further: key of the grades not given here
# [23] = biological target: T2, GST-KIAA0300 PDZ domain 2 (UniProt O15018); test: G' assay; further: key of the grades not given here
# T2 sequence (looked up): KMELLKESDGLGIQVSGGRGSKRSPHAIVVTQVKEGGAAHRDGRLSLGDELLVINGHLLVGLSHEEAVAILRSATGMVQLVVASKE
# [24] = biological target: GST-DLG-1 PDZ domains 1 to 3 (Example 6) (Homo sapiens) (UniProt Q12959); test: G assay competition vs 10 uM biotin-KV1.3 20-mer; competitor 50 uM
# [25] = biological target: GST-DLG-1 PDZ domains 1 to 3 (Example 6) (Homo sapiens) (UniProt Q12959); test: G assay competition vs 20 uM biotin-CLASP-2 20-mer; competitor 50 uM
# [26] = biological target: GST-DLG-1 PDZ domains 1 to 3 (Example 6) (Homo sapiens) (UniProt Q12959); test: G assay competition vs 20 uM biotin-CD46 20-mer; competitor 50 uM
# [27] = biological target: GST-DLG-1 PDZ domains 1 to 3 (Example 6) (Homo sapiens) (UniProt Q12959); test: G assay competition vs 10 uM biotin-CD95 20-mer; competitor 50 uM
substance,measurement,setting,value
AdenoE4 typ9 (peptide),Classification,[1],1 A450 class
CD46 8-mer (peptide),% binding of labelled 20-mer,[2],90%
same,% binding of labelled 20-mer,[3],68%
same,% binding of labelled 20-mer,[4],63%
same,% binding of labelled 20-mer,[5],90%
CLASP-2 3-mer (peptide),% binding of labelled 20-mer,[6],72%
same,% binding of labelled 20-mer,[7],75%
same,% binding of labelled 20-mer,[8],51%
same,% binding of labelled 20-mer,[9],55%
same,% binding of labelled 20-mer,[10],59%
same,% binding of labelled 20-mer,[11],63%
same,% binding of labelled 20-mer,[12],81%
same,% binding of labelled 20-mer,[13],46%
same,% binding of labelled 20-mer,[14],55%
same,% binding of labelled 20-mer,[15],45%
same,% binding of labelled 20-mer,[16],59%
same,% binding of labelled 20-mer,[17],50%
same,% binding of labelled 20-mer,[18],61%
same,% binding of labelled 20-mer,[19],82%
"CSPG4 (chondroitin sulfae proteoglycan 4, melanoma-associated) (peptide)",Classification,[1],2 A450 class
HPV E6 #18 (peptide),Classification,[20],5 A450 class
same,Classification,[21],4 A450 class
MINT-1 (peptide),Classification,[1],4 A450 class
MINT-2 (peptide),Classification,[22],1 A450 class
same,Classification,[1],3 A450 class
ephrin B2 (peptide),Classification,[1],2 A450 class
presenilin-1 (peptide),Classification,[22],1 A450 class
presenilin-2 (peptide),Classification,[23],1 A450 class
same,Classification,[1],1 A450 class
unlabeled 8 amino acid peptide corresponding to the C-terminus of CD95,% binding of labelled 20-mer,[24],84%
same,% binding of labelled 20-mer,[25],73%
same,% binding of labelled 20-mer,[26],110%
same,% binding of labelled 20-mer,[27],70%
